The results in this text go back to patent US20190241886A1.

This experiment addresses CD137 (soluble antigen for staining of yeast) (human) (UniProt Q07011). Kind of experiment: flow cytometry of yeast displaying the scFv, stained with human CD137; number printed over the dot plot, y axis CD137 binding (FL2-A PE-A), x axis scFv display.

Chain of CD137 (soluble antigen for staining of yeast) (human) (Q07011 24-186 limits assumed): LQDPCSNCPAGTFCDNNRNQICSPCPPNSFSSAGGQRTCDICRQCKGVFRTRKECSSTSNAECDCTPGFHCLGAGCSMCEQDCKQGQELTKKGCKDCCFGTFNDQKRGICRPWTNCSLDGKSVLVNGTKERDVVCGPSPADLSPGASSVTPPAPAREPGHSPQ

B1: scFv of parental CD137 antibody TY21242 displayed on yeast (scFv, part only; not given: linker, Aga2 and tag, V domains shown, not shown: another chain or arm of the molecule; large carriers; small tags and cut ends)
VL: DIQLTQSPSSLSASVGDRVTITCRASQSIGSYLAWYQQKPGKAPKLLIYDASNLETGVPSRFSGSGSGTDFTLTISSLQPEDFATYYCQQGYYLWTFGQGTKVEIK
VH: EVQLVESGGGLVQPGGSLRLSCAASGFSLSTGGVGVGWIRQAPGKGLEWLALIDWADDKYYSPSLKSRLTISRDNSKNTLYLQLNSLRAEDTAVYYCARGGSDTVIGDWFAYWGQGTLVTVSS
As for B1, the Y was 19200.
